Source: US20130157935A1 (ZEALAND PHARMA A S, published 2013)
Starred links: 1 amine or outer side, 2 acyl side, 3 side chain; linkers in the order of their positions; H or OH if unused. Groups on a side chain read outwards from the residue. *: point of attachment. γGlu = O=C(O)[C@H](CCC(=O)[*:2])N[*:1]; Palmitoyl = CCCCCCCCCCCCCCCC(=O)*

B1: Compound 7: H-H-Aib-QGTFTSDYSKYLDE-K(Hexadecanoyl-isoGlu)-RAKDFIEWLLSA-NH2 (peptide)
peptide: HXQGTFTSDYSKYLDEXRAKDFIEWLLSA
HELM: PEPTIDE1{H.[Aib].Q.G.T.F.T.S.D.Y.S.K.Y.L.D.E.K.R.A.K.D.F.I.E.W.L.L.S.A.[am]}|PEPTIDE2{[CCCCCCCCCCCCCCCC(=O)[*:2]].[gGlu]}$PEPTIDE1,PEPTIDE2,17:R3-2:R2$$$V2.0
SMILES: CCCCCCCCCCCCCCCC(=O)N[C@@H](CCC(=O)NCCCC[C@H](NC(=O)[C@H](CCC(=O)O)NC(=O)[C@H](CC(=O)O)NC(=O)[C@H](CC(C)C)NC(=O)[C@H](Cc1ccc(O)cc1)NC(=O)[C@H](CCCCN)NC(=O)[C@H](CO)NC(=O)[C@H](Cc1ccc(O)cc1)NC(=O)[C@H](CC(=O)O)NC(=O)[C@H](CO)NC(=O)[C@@H](NC(=O)[C@H](Cc1ccccc1)NC(=O)[C@@H](NC(=O)CNC(=O)[C@H](CCC(N)=O)NC(=O)C(C)(C)NC(=O)[C@@H](N)Cc1c[nH]cn1)[C@@H](C)O)[C@@H](C)O)C(=O)N[C@@H](CCCNC(=N)N)C(=O)N[C@@H](C)C(=O)N[C@@H](CCCCN)C(=O)N[C@@H](CC(=O)O)C(=O)N[C@@H](Cc1ccccc1)C(=O)N[C@H](C(=O)N[C@@H](CCC(=O)O)C(=O)N[C@@H](Cc1c[nH]c2ccccc12)C(=O)N[C@@H](CC(C)C)C(=O)N[C@@H](CC(C)C)C(=O)N[C@@H](CO)C(=O)N[C@@H](C)C(N)=O)[C@@H](C)CC)C(=O)O
B2: Compound 5: H-HSQGTFTSDYSKYLD-K(Hexadecanoyl-isoGlu)-RRAKDFIEWLLSA-NH2 (peptide)
peptide: HSQGTFTSDYSKYLDXRRAKDFIEWLLSA
HELM: PEPTIDE1{H.S.Q.G.T.F.T.S.D.Y.S.K.Y.L.D.K.R.R.A.K.D.F.I.E.W.L.L.S.A.[am]}|PEPTIDE2{[CCCCCCCCCCCCCCCC(=O)[*:2]].[gGlu]}$PEPTIDE1,PEPTIDE2,16:R3-2:R2$$$V2.0
SMILES: CCCCCCCCCCCCCCCC(=O)N[C@@H](CCC(=O)NCCCC[C@H](NC(=O)[C@H](CC(=O)O)NC(=O)[C@H](CC(C)C)NC(=O)[C@H](Cc1ccc(O)cc1)NC(=O)[C@H](CCCCN)NC(=O)[C@H](CO)NC(=O)[C@H](Cc1ccc(O)cc1)NC(=O)[C@H](CC(=O)O)NC(=O)[C@H](CO)NC(=O)[C@@H](NC(=O)[C@H](Cc1ccccc1)NC(=O)[C@@H](NC(=O)CNC(=O)[C@H](CCC(N)=O)NC(=O)[C@H](CO)NC(=O)[C@@H](N)Cc1c[nH]cn1)[C@@H](C)O)[C@@H](C)O)C(=O)N[C@@H](CCCNC(=N)N)C(=O)N[C@@H](CCCNC(=N)N)C(=O)N[C@@H](C)C(=O)N[C@@H](CCCCN)C(=O)N[C@@H](CC(=O)O)C(=O)N[C@@H](Cc1ccccc1)C(=O)N[C@H](C(=O)N[C@@H](CCC(=O)O)C(=O)N[C@@H](Cc1c[nH]c2ccccc12)C(=O)N[C@@H](CC(C)C)C(=O)N[C@@H](CC(C)C)C(=O)N[C@@H](CO)C(=O)N[C@@H](C)C(N)=O)[C@@H](C)CC)C(=O)O
B3: Compound 6: H-HSQGTFTSDYSKYLDE-K(Hexadecanoyl-isoGlu)-RAKDFIEWLLSA-NH2 (peptide)
peptide: H-HSQGTFTSDYSKYLDEK([γGlu-Palmitoyl])RAKDFIEWLLSA-NH2
B4: Compound 2: H-HSQGTFTSDYSKYLDERRAKDFIEWL-K(Hexadecanoyl-isoGlu)-SA-NH2 (peptide)
peptide: HSQGTFTSDYSKYLDERRAKDFIEWLXSA
HELM: PEPTIDE1{H.S.Q.G.T.F.T.S.D.Y.S.K.Y.L.D.E.R.R.A.K.D.F.I.E.W.L.K.S.A.[am]}|PEPTIDE2{[CCCCCCCCCCCCCCCC(=O)[*:2]].[gGlu]}$PEPTIDE1,PEPTIDE2,27:R3-2:R2$$$V2.0
SMILES: CCCCCCCCCCCCCCCC(=O)N[C@@H](CCC(=O)NCCCC[C@H](NC(=O)[C@H](CC(C)C)NC(=O)[C@H](Cc1c[nH]c2ccccc12)NC(=O)[C@H](CCC(=O)O)NC(=O)[C@@H](NC(=O)[C@H](Cc1ccccc1)NC(=O)[C@H](CC(=O)O)NC(=O)[C@H](CCCCN)NC(=O)[C@H](C)NC(=O)[C@H](CCCNC(=N)N)NC(=O)[C@H](CCCNC(=N)N)NC(=O)[C@H](CCC(=O)O)NC(=O)[C@H](CC(=O)O)NC(=O)[C@H](CC(C)C)NC(=O)[C@H](Cc1ccc(O)cc1)NC(=O)[C@H](CCCCN)NC(=O)[C@H](CO)NC(=O)[C@H](Cc1ccc(O)cc1)NC(=O)[C@H](CC(=O)O)NC(=O)[C@H](CO)NC(=O)[C@@H](NC(=O)[C@H](Cc1ccccc1)NC(=O)[C@@H](NC(=O)CNC(=O)[C@H](CCC(N)=O)NC(=O)[C@H](CO)NC(=O)[C@@H](N)Cc1c[nH]cn1)[C@@H](C)O)[C@@H](C)O)[C@@H](C)CC)C(=O)N[C@@H](CO)C(=O)N[C@@H](C)C(N)=O)C(=O)O
B5: Compound 3: H-HSQGTFTSDYSKYLDERRA-K(Hexadecanoyl-isoGlu)-DFIEWLLSA-NH2 (peptide)
peptide: HSQGTFTSDYSKYLDERRAXDFIEWLLSA
modifications: K(Hexadecanoyl-isoGlu) at position 20; C-terminal amide (NH2)
B6: Compound 4: H-HSQGTFTSDYSKYLDERRAKDFIEWLL-K(Hexadecanoyl-isoGlu)-A-NH2 (peptide)
peptide: HSQGTFTSDYSKYLDERRAKDFIEWLLXA
HELM: PEPTIDE1{H.S.Q.G.T.F.T.S.D.Y.S.K.Y.L.D.E.R.R.A.K.D.F.I.E.W.L.L.K.A.[am]}|PEPTIDE2{[CCCCCCCCCCCCCCCC(=O)[*:2]].[gGlu]}$PEPTIDE1,PEPTIDE2,28:R3-2:R2$$$V2.0
SMILES: CCCCCCCCCCCCCCCC(=O)N[C@@H](CCC(=O)NCCCC[C@H](NC(=O)[C@H](CC(C)C)NC(=O)[C@H](CC(C)C)NC(=O)[C@H](Cc1c[nH]c2ccccc12)NC(=O)[C@H](CCC(=O)O)NC(=O)[C@@H](NC(=O)[C@H](Cc1ccccc1)NC(=O)[C@H](CC(=O)O)NC(=O)[C@H](CCCCN)NC(=O)[C@H](C)NC(=O)[C@H](CCCNC(=N)N)NC(=O)[C@H](CCCNC(=N)N)NC(=O)[C@H](CCC(=O)O)NC(=O)[C@H](CC(=O)O)NC(=O)[C@H](CC(C)C)NC(=O)[C@H](Cc1ccc(O)cc1)NC(=O)[C@H](CCCCN)NC(=O)[C@H](CO)NC(=O)[C@H](Cc1ccc(O)cc1)NC(=O)[C@H](CC(=O)O)NC(=O)[C@H](CO)NC(=O)[C@@H](NC(=O)[C@H](Cc1ccccc1)NC(=O)[C@@H](NC(=O)CNC(=O)[C@H](CCC(N)=O)NC(=O)[C@H](CO)NC(=O)[C@@H](N)Cc1c[nH]cn1)[C@@H](C)O)[C@@H](C)O)[C@@H](C)CC)C(=O)N[C@@H](C)C(N)=O)C(=O)O

Experiments:
[1] = biological target: human glucagon-like peptide 1 receptor (GLP-1 R) (human, UniProt P43220 24-463); experiment: cell-based or functional assay
[2] = biological target: human glucagon receptor (Glucagon-R) (human, UniProt P47871 26-477); experiment: cell-based or functional assay
Sequence of human glucagon receptor (Glucagon-R) (P47871 26-477): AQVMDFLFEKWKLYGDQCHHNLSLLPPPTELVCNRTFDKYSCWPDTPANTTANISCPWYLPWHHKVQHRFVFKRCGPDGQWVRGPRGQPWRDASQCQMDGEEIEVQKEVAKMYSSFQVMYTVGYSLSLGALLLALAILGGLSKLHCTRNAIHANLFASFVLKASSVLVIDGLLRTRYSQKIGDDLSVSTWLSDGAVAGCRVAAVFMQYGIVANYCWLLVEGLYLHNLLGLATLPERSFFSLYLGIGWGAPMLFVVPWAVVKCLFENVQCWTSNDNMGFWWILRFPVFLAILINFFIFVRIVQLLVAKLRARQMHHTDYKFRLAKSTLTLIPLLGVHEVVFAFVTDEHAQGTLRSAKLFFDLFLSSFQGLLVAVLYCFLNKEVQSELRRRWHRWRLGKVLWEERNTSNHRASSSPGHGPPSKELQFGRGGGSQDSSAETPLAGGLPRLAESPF

Binder | GLP-1R EC50 (nM), cAMP formation in HEK293 cells expressing human GLP-1-R [1] | GluR EC50 (nM), cAMP formation in HEK293 cells expressing human Glucagon-R [2]
B1 | 0.1 nM | 0.16 nM
B2 | 0.35 nM | 0.19 nM
B3 | 0.13 nM | –
B4 | 3.09 nM | 0.81 nM
B5 | 0.64 nM | 0.6 nM
B6 | 0.31 nM | 0.25 nM
